Measurements taken from patent publication US11649275B2, “Dual agonist fusion proteins” (Duke University, priority 2018, dated 2023).
Entries after “also recorded” stand apart in the source; their conditions may differ.

B1: GLP1-ELP: Single agonist control: GLP-1 analog fused to ELP of 120 VPGXaaG repeats, 4:1 Val:Ala; SEQ ID NO:16 (protein)
chain: AAHGEGTFTSDVSSYLEEQAAKEFIAWLVKGAGVGVPGVGVPGAGVPGVGVPGVGVPGVGVPGVGVPGAGVPGVGVPGVGVPGVGVPGVGVPGAGVPGVGVPGVGVPGVGVPGVGVPGAGVPGVGVPGVGVPGVGVPGVGVPGAGVPGVGVPGVGVPGVGVPGVGVPGAGVPGVGVPGVGVPGVGVPGVGVPGAGVPGVGVPGVGVPGVGVPGVGVPGAGVPGVGVPGVGVPGVGVPGVGVPGAGVPGVGVPGVGVPGVGVPGVGVPGAGVPGVGVPGVGVPGVGVPGVGVPGAGVPGVGVPGVGVPGVGVPGVGVPGAGVPGVGVPGVGVPGVGVPGVGVPGAGVPGVGVPGVGVPGVGVPGVGVPGAGVPGVGVPGVGVPGVGVPGVGVPGAGVPGVGVPGVGVPGVGVPGVGVPGAGVPGVGVPGVGVPGVGVPGVGVPGAGVPGVGVPGVGVPGVGVPGVGVPGAGVPGVGVPGVGVPGVGVPGVGVPGAGVPGVGVPGVGVPGVGVPGVGVPGAGVPGVGVPGVGVPGVGVPGVGVPGAGVPGVGVPGVGVPGVGVPGVGVPGAGVPGVGVPGVGVPGVGVPGVGVPGAGVPGVGVPGVGVPGVGVPGVGVPGAGVPGVGVPGVGVPG
B2: GLP1-ELP-FGF21: Fusion of GLP-1 analog, ELP (120 VPGXaaG repeats, 4:1 Val:Ala) and mutated murine FGF21; SEQ ID NO:15 (protein)
chain: AAHGEGTFTSDVSSYLEEQAAKEFIAWLVKGAGVGVPGVGVPGAGVPGVGVPGVGVPGVGVPGVGVPGAGVPGVGVPGVGVPGVGVPGVGVPGAGVPGVGVPGVGVPGVGVPGVGVPGAGVPGVGVPGVGVPGVGVPGVGVPGAGVPGVGVPGVGVPGVGVPGVGVPGAGVPGVGVPGVGVPGVGVPGVGVPGAGVPGVGVPGVGVPGVGVPGVGVPGAGVPGVGVPGVGVPGVGVPGVGVPGAGVPGVGVPGVGVPGVGVPGVGVPGAGVPGVGVPGVGVPGVGVPGVGVPGAGVPGVGVPGVGVPGVGVPGVGVPGAGVPGVGVPGVGVPGVGVPGVGVPGAGVPGVGVPGVGVPGVGVPGVGVPGAGVPGVGVPGVGVPGVGVPGVGVPGAGVPGVGVPGVGVPGVGVPGVGVPGAGVPGVGVPGVGVPGVGVPGVGVPGAGVPGVGVPGVGVPGVGVPGVGVPGAGVPGVGVPGVGVPGVGVPGVGVPGAGVPGVGVPGVGVPGVGVPGVGVPGAGVPGVGVPGVGVPGVGVPGVGVPGAGVPGVGVPGVGVPGVGVPGVGVPGAGVPGVGVPGVGVPGVGVPGVGVPGAGVPGVGVPGVGVPGVGVPGVGVPGAGVPGVGVPGVGVPGAYPIPDSSPLLQFGGQVRQRYLYTDDDQDTEAHLEIREDGTVVGAAHRSPESLLELKALKPGVIQILGVKASRFLCQQPDGALYGSPHFDPEACSFRERLLEDGYNVYQSEAHGLPLRLPQKDSPNQDATSWGPVRFLPMPGLLHEPQDQAGFLPPEPPDVGSSDPLSMVEGSQGRSPSYASG

Key:
db/db mice [1] = assay: Short-term co-treatment pilot study, 48 h after single s.c. injection; type: in vivo; conditions: 48 h post-injection, 1000 nmol/kg s.c.
Protocol: (§1) Animals: In vivo studies were conducted in accordance with the AAALAC-accredited Duke Institutional Animal Care and Use Committee. 5-week-old B6.BKS(D)-Lepr^db/J (“db/db”) male mice were purchased from Jackson Laboratory (Bar Harbor, Me.) and maintained on a 12 h/12 h light/dark cycle with ad libitum access to food (LabDiet 5053) and water. Animals were group-housed and allowed 1-week acclimation before stratification into control and treatment groups based on baseline ambient blood glucose levels and body weights.
(§2) ELP fusion treatments: ELP fusion proteins were administered at 150-200 μM concentration via injection into the subcutaneous (s.c.) space on the hind flank. Animals received either a single s.c. injection for short-term studies or weekly s.c. injections for chronic studies. The “1:1 mixture” treatment group received a single injection containing an equimolar mixture of GLP1-ELP and ELP-FGF21, with the indicated dose referring to the dose of each respective fusion in the mixture. Vehicle control refers to PBS.
(§3) Ambient blood glucose measurements: Blood glucose levels were measured from a tail vein puncture with an AlphaTRAK 2 Blood Glucose Meter (Zoetis, Parsippany-Troy Hills, N.J.) every 24 h, 1-2 h following onset of the light cycle. […] Areas under the curve (AUCs) were calculated with GraphPad Prism 8 software using the trapezoidal rule and setting a Y=0 baseline. […]

db/db mice [2] = assay: GLP1-ELP control, single s.c. injection, glycemia and body weight for 10 days; type: in vivo; conditions: 1000 nmol/kg single s.c.
Protocol: as §1, §2, §3

[3] = LCST phase behavior characterization (turbidity OD350 vs temperature); type: physicochemical
Protocol: Phase behavior characterization: The lower critical solution temperature (LCST) phase transition behavior of ELP fusion proteins was evaluated by monitoring the OD350 of solutions in PBS as a function of temperature on a Cary 300 UV-visible spectrophotometer equipped with a multicell thermoelectric temperature controller (Agilent Technologies, Santa Clara, Calif.). Heating and cooling were set to a rate of 1° C./min. The Tt was defined as the temperature at which the optical density reached 50% of its maximal value.

db/db mice [4] = assay: Chronic dosing study, weekly s.c. for four weeks (GTT, % HbA1c, body weight, food intake); type: in vivo; conditions: for GTT AUC: i.p. glucose tolerance test 3 days after the first dosing cycle; for fasting plasma insulin: prior to glucose challenge; for change in % HbA1c from days 0 to 27: weekly 1000 nmol/kg s.c. for four weeks; for weight gain on chronic treatment: weekly 1000 nmol/kg s.c.
Protocol: as §1, §2
Food Intake: For food intake studies, animals were group-housed 4 per cage, and food pellets were weighed every 1-2 days. Total cage food intake was calculated for each time increment, averaged per animal, and summed over the course of the study to yield a cumulative food intake per mouse. N=8 treatment groups were divided into 2 cages, allowing for an n=2 food intake standard error calculation.

GLP-1R = target: T1, GLP-1R (Homo sapiens, UniProt P43220); assay: cAMP production assay (GLP-1R agonism, HEK293 cells with cAMP-inducible luciferase reporter); type: cell-based; conditions: fusion of GLP1 to ELP or ELP-FGF21
T1 construct: expressed in transfected cells; host or cells: HEK293
T1 sequence (P43220 24-463, species assumed): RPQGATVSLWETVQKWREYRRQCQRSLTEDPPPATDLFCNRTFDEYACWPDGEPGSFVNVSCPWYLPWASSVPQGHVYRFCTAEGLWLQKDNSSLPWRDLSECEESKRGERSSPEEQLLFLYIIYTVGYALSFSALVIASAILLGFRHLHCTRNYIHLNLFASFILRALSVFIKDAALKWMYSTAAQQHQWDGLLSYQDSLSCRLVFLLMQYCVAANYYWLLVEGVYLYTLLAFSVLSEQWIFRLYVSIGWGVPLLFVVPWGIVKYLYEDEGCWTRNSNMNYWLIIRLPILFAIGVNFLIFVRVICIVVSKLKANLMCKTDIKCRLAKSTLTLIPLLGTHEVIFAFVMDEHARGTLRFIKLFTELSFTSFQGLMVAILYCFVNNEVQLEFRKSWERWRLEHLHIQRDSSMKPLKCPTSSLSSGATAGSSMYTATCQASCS
Protocol: This time, however, the intended cleavage substrate was a GA leader instead of the AA leader. […] Data were fit to a three-parameter dose-response curve to determine EC50s.
Cells were seeded at 1×10^5 cells/cm^2 into 96 well plates and adhered overnight. […] Luminescence of the supernatant samples were measured on a Victor X3 Plate Reader (Perkin Elmer) and normalized to zero drug treatment control wells. Data were fit to a three-parameter dose-response curve to determine EC50s using GraphPad Prism 8 software.

[5] = Pharmacokinetic study of radiolabeled ELP fusion depots after s.c. injection; type: in vivo, mice; conditions: for Cmax / TMAX / AUC / T1/2, ABS (absorption half-life): db/db mice, 1000 nmol/kg; for Cmax / TMAX / AUC / T1/2, ABS (absorption half-life) / steady plasma drug levels: single s.c. injection; for Cmax / TMAX: radiolabeled construct; for AUC: extrapolated to 16 days post-administration; for T1/2, ABS (absorption half-life): from slope of terminal linear regression; for R-squared, first-order model / R-squared, zero-order model / Regression model, first-order elimination (Log(y)): fit to terminal portion of plasma concentration vs time data; for steady plasma drug levels: out to day 10 / for at least 10 days
Protocol: Pharmacokinetic studies: Tyrosine residues on GLP1-ELP, ELP-FGF21, or GLP1-ELP-FGF21 fusion proteins were reacted with Na^125I radionuclide (Perkin Elmer) using Pierce Pre-Coated Iodination Tubes (Thermo Fisher Scientific) and the indirect method for iodination. Radiolabeled protein was purified from unreacted radionuclide with Zeba Spin Desalting Columns (Thermo Fisher Scientific). Activities of radiolabeled constructs were measured with an Atomlab 400 Dose Calibrator (Biodex, Shirley, N.Y.) and correlated to protein concentration. Mice received a single s.c. injection of radiolabeled fusion, and 10 μL blood samples were collected at frequent time points from the tail vein and stored at room temperature until radioactivity quantification. Sample counts were measured at the end of the study on a Wallac Wizard 1480 Automatic Gamma Counter (Perkin Elmer). An activity vs. count standard curve was used to convert sample counts to activities, and subsequently to moles of drug.
Pharmacokinetic analysis: The maximum serum concentration (Cmax) was recorded as observed, as well as time to reach Cmax (tmax). […] Absorption half-life (t1/2, abs) was estimated from the slope of the linear regression curve. When a drug administered at an extravascular site yields a terminal half-life greater than that resulting from an i.v. bolus, the terminal half-life reflects the absorption half-life.

db/db mice [6] = assay: Hypoglycemia safety check (16 h extended fast, glucose-stimulated insulin in GTT)
Protocol: Glucose tolerance test: Animals were fasted at the onset of the light cycle for 5 h with ad libitum access to water, then injected via intraperitoneal (i.p.) with 0.75 g/kg D-glucose. Blood glucose levels were measured from a tail snip with a Contour Blood Glucose Meter (Bayer, Leverkusen, Germany) at t=0 (before glucose injection), 10, 20, 30, 60, 90, and 120 min.
Extended fast blood glucose measurements: Animals were fasted for 16 h starting at 4:00 PM with ad libitum access to water, after which blood glucose levels were measured from the tail vein as described for ambient blood glucose measurements.
Blood parameters: 50 μL blood samples were collected from the tail veins following a 6 h fast using Microvette EDTA coated tubes (Sarstedt), which were placed on ice until centrifugation at 5000 rcf at 4° C. for 15 min. Plasma supernatants were stored at −80° C. until time of assay. Plasma insulin levels were quantified using the Mercodia Mouse Insulin ELISA, according to the manufacturers' instructions.

db/db mice [7] = assay: Single s.c. injection dose study of GLP1-ELP-FGF21 (ambient blood glucose, body weight); type: in vivo
Protocol: as §1, §2
Ambient blood glucose measurements: Blood glucose levels were measured from a tail vein puncture with an AlphaTRAK 2 Blood Glucose Meter (Zoetis, Parsippany-Troy Hills, N.J.) every 24 h, 1-2 h following onset of the light cycle. Data are presented as either raw values, or as a magnitude change from a mean baseline established from three independent measurements collected prior to treatment. Areas under the curve (AUCs) were calculated with GraphPad Prism 8 software using the trapezoidal rule and setting a Y=0 baseline. Treatment group AUCs were normalized to the vehicle-treated group where indicated.

[8] = 5 h fast, 3 days after the first dosing cycle, 1000 nmol/kg s.c.
[9] = 3 days after the first dosing cycle

Row | Molecule | fasting blood glucose levels (db/db mice [4]; [8]) | food intake (db/db mice [4]; four-week treatment period) | GTT AUC (db/db mice [4]) | fasting plasma insulin (db/db mice [4]; [9]) | change in % HbA1c from days 0 to 27 (db/db mice [4]) | weight gain on chronic treatment (db/db mice [4]; four-week treatment period) | Cmax [5] | TMAX [5] | AUC [5] | T1/2, ABS (absorption half-life) [5] | R-squared, first-order model [5] | R-squared, zero-order model [5] | Regression model, first-order elimination (Log(y)) [5] | steady plasma drug levels [5] | other results
1 | B1 | 167 ± 11 mg/dL | significant reduction in food intake | outperformed ELP-FGF21 in improving glucose tolerance | significant increase in fasting plasma insulin | +1.0±0.2% | 25.3±1.9% | 369 ± 14 nM | 4.8 ± 0.7 H | 2023 ± 67 NM*D | 20.8 ± 3.2 D | 0.61 | 0.58 | Log(y) = −0.01628x + 2.263 | around 100 nM | body weight, % change from pre-injection weight (db/db mice [1]): −0.2±0.6%; weight gain compared to control mice (db/db mice [2]; daily for 10 days): significantly inhibited weight gain; ambient blood glucose levels after treatment (db/db mice [2]; reduced from >300 mg/dL for the duration of the 10 day study): < 200 mg/dL; Tt (transition temperature) ([3]; PBS, injection-relevant concentration of 200 μM): 27.5 °C; % HbA1c elevation relative to control (db/db mice [4]; four-week study): significantly reduced % HbA1c elevation relative to control; effect on body weight / weight gain compared to vehicle (db/db mice [4]; four-week treatment period): significantly inhibited weight gain; increase in GLP-1R EC50 compared to native GLP-1 (GLP-1R): approximately ten-fold; also recorded: ten-fold increase; plasma levels of component of 1:1 mixed depot ([5]; 1:1 mixture, 1000 nmol/kg each, steady for 7 days): around 100 nM
2 | B2 | 125 ± 6.0 mg/dL | consuming chow at an equivalent rate to GLP1-ELP | significantly decreased GTT AUC compared to GLP1-ELP or ELP-FGF21 | without a significant elevation in insulin | +0.3±0.2% | 14.1±1.6% | 411 ± 51 nM | 10.5 ± 1.5 H | 1961 ± 59 NM*D | 7.6 ± 1.1 D | 0.85 | 0.81 | Log(y) = −0.0416x + 2.431 | ~100 nM | reversibility of phase change behavior ([3]; temperature ramped up to 37° C., then down to 20° C.): reversible; blood glucose levels after overnight 16 h fast (db/db mice [6]; 1000 nmol/kg s.c., fast begun 48 h post-treatment, threshold of hypoglycemia): 50 to 55 mg/dL; ad libitum-fed blood glucose levels (db/db mice [6]; 48 h post-treatment, 1000 nmol/kg s.c., vs vehicle): significant reductions; blood glucose levels during recovery (return to pre-injection baselines) (db/db mice [6]; t=60 to t=120 min post-challenge in GTT): -100 mg/dL; fasting blood glucose levels (db/db mice [4]; GTT 3 days following the final treatment): 92.7 ± 8.3 mg/dL; negative net weight gain values persisting through (db/db mice [4]; weekly dosing): 12 days; body weight % change on day 7 post-treatment (db/db mice [7]; 750 nmol/kg): −2.6±3.3%; blood glucose vs. time AUC (db/db mice [7]; 750 nmol/kg and 1000 nmol/kg, single s.c. injection, vs vehicle): Significant reductions; body weight % change on day 7 post-treatment (db/db mice [7]; 1000 nmol/kg): −2.7±3.7%; ambient blood glucose levels after treatment (db/db mice [7]; all doses, reduced from >300 mg/dL): < 150 mg/dL; persistence of blood glucose effects (db/db mice [7]; highest dose tested, 1000 nmol/kg): 8 days; persistence of blood glucose effects (db/db mice [7]; lowest dose, 250 nmol/kg): 4 days; duration of therapeutic drug levels and protection from hyperglycemia and weight gain (db/db mice [7]; single injection): > 7 days; reduction of body weights (maximum) (db/db mice [7]; two highest doses tested (750 and 1000 nmol/kg)): up to 7.2±2.3%; absorption half-life ([5]; linear regression fit to terminal portion of the data, 1000 nmol/kg s.c.): 182 ± 26.4 h
